The supplement of paper PMC10126150
± gives the standard deviation of the averaged measurements.

Tested on: ATP
Experiment: switch fluorescence ratio, 500 uM ATP over buffer (Cy3 cluster intensity, sum of 5 cycles each) (fold (ratio)); higher = stronger signal-on switching upon ATP binding; sequences stand for … in TCGTCGGCAGCGTCAGATGTGTATAAGAGACAGTTTTTTTTTTTTTTTTTTTTTTTTT…TC
Conditions: aptamer strand: ATP DNA aptamer (quencher-CACCTGGGGGAGTATTGCGGAGGAAGG + anchor), 100 nM annealed; ATP concentration: 500 uM
Procedure, shortened: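 Values give the fluorescence ratio for each switch-domain sequence, averaged from per-cluster ratios of summed target-cycle to summed buffer-cycle Cy3 intensity. The Cy3-labelled switching-strand clusters sat on a modified Illumina MiSeq flow-cell, were annealed to 100 nM quencher-labelled ATP aptamer, and were imaged in selection buffer, then after 15 min with 500 uM ATP at 22 °C. Five cycles ran with NaOH stripping and re-annealing between them, and clusters outside 100-1000 RFU were excluded.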
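Note: ATP exposure 15 min at 22 °C before imaging.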

Sequence	switch fluorescence ratio
GGGCGGCTGC	0.955 ± 0.03
GTACGGGAAG	1.19 ± 0.1
ACTATGTCTT	1.005 ± 0.0049
TGAGAGGAGT	0.9911 ± 0.0013
GCGGGATTGG	1.001 ± 0.0077
AGACAGGGGA	1.02 ± 0.04
TATCCTGGCT	0.9961 ± 0.0089
AGCTACACGT	1.05 ± 0.014
GAGACAATTC	1.06 ± 0.017
TAAAATTGGG	0.989 ± 0.014
GTGTGGTATA	0.982 ± 0.012
ATAGTGGGAG	0.992 ± 0.04
GAGTATTTTG	0.953 ± 0.026
GAATGAGTCT	1.01 ± 0.091
TTTGTAACAT	0.966 ± 0.047
TTTTTCACTG	1 ± 0.052
TACTTAGTGG	1.02 ± 0.017
TAAAGTTTTT	1.002 ± 0.0088
ACTGGCTGAG	1.01 ± 0.024
ACGTTTAGAA	1.01 ± 0.029
AAGCTTTACG	1.052 ± 0.0079
TTAAATGAAA	1.02 ± 0.013
AGGGGTGGAA	0.975 ± 0.022
TGGGGGGTAT	1 ± 0.03
TAGATGTCCG	0.922 ± 0.098

Sequence	switch fluorescence ratio
GGCAGTCCTT	1.005 ± 0.0044
GTAATGGGGG	1.09 ± 0.071
GAGAACATGG	1.03 ± 0.035
GGGGGGGGGG	1.02 ± 0.068
TTTTCTATAT	1.01 ± 0.065
TAAACTGGGA	1.004 ± 0.0093
CAGATCAGTA	0.964 ± 0.015
GGAGGAAATG	0.949 ± 0.011
AATTTTTGCT	0.966 ± 0.011
GCAGCCAAGC	1.14 ± 0.028
TAGCAGGACT	1.76 ± 0.22
CTAATCAGCT	0.977 ± 0.019
TTTGTAGTAT	1.03 ± 0.1
GTGGACATAT	0.991 ± 0.015
TATTTCCCGT	1.06 ± 0.065
CGAGGAAATG	1.06 ± 0.011
AATGGAGGGG	0.978 ± 0.019
GAGGGCCGCG	0.997 ± 0.051
TCGGGGGGTC	0.981 ± 0.043
GCTCTTGGTT	1.02 ± 0.045
TCCCTGGTAT	1.04 ± 0.014
CCCAGCAGGT	1.9 ± 0.18
GCGAAAAATA	1.0196 ± 0.00067
ACGTTTTAAG	1.01 ± 0.032
TACTGGAGTA	1.01 ± 0.018

Sequence	switch fluorescence ratio
CTAAGATCGG	1 ± 0.02
CGAGTGTGTG	0.97 ± 0.024
ACGTGGGGAG	1.08 ± 0.022
TGTGTTCCAA	1.002 ± 0.0047
AATTTTATCG	0.9741 ± 0.0085
TTCCATGCGG	1.02 ± 0.037
AGTTTCTTTT	0.994 ± 0.0026
TACGAATCT	1.03 ± 0.056
TCATAGGTCA	0.972 ± 0.024
ATGGTCGAGC	0.9822 ± 0.0076
TTTAGCATGG	1.01 ± 0.047
TTAGAAGTTT	1.01 ± 0.015
ACTATGAGCT	1.04 ± 0.041
TCGGGTCGCG	0.9948 ± 0.00097
GTGTAAGAGA	1.006 ± 0.0081
GGGGAGGTAA	0.973 ± 0.012
ATTCTTAGTA	0.986 ± 0.03
TTTAGCAGGG	1.01 ± 0.026
CTTAGAATTG	1.02 ± 0.012
GTGGTCGAGT	0.989 ± 0.01
AACGGTTGAT	0.974 ± 0.015
TATTTACATT	1.03 ± 0.048
CTAAGTAGAT	1.02 ± 0.028
GTGGGGGCGG	1.01 ± 0.022
CAGTGATGAG	1.03 ± 0.012

Sequence	switch fluorescence ratio
GCTAGGGTAG	1.03 ± 0.058
AGAAGGGCTT	1 ± 0.026
TTCGGGTGGA	1.02 ± 0.046
GCATTGATGT	1.02 ± 0.017
GGTCCCCAAT	1 ± 0.013
CCGATGGGGG	1.01 ± 0.025
CACGGTGCGG	1.01 ± 0.015
GGTCTGTTGT	0.99 ± 0.049
GTTAAATTTT	0.986 ± 0.024
TCTGTTGGGC	0.995 ± 0.025
CAGGGATTGA	0.998 ± 0.0049
TTGAATAAAA	1.005 ± 0.0096
GAGCTTTGAT	0.996 ± 0.024
TTCTGAGTCT	1.02 ± 0.041
CGAGTCCCCT	1.04 ± 0.033
CCGTGGGGTA	0.974 ± 0.031
ACACTCAGAG	1.019 ± 0.004
CAATGGTCCA	1.03 ± 0.024
AATTTCTGTG	0.978 ± 0.035
GGGAGAGAAT	1.005 ± 0.0058
GCAATAGACT	1.51 ± 0.04
AGACAGCGAG	1.015 ± 0.0021
GGGAGGAGGT	0.98 ± 0.024
TCCAAGCTGG	1.03 ± 0.025
AGGGTGTCCG	1.09 ± 0.054

Sequence	switch fluorescence ratio
GTCTAACTGT	0.994 ± 0.029
ACCTGTAATA	1.05 ± 0.0062
CTGGGTGCAT	1.14 ± 0.032
GGAGGGGCAA	1.24 ± 0.032
GATTTAGTTA	1.01 ± 0.027
ATGCCCTTCG	1.04 ± 0.013
TTTTCATATC	1.04 ± 0.025
ACCTGGCCTG	0.999 ± 0.021
CCTGTGGACG	0.914 ± 0.048
GTTTCGGGGT	1.004 ± 0.0055
TGGGGCGCCG	1.13 ± 0.18
TTATAATTTG	1.02 ± 0.032
ATCGAAGGCA	0.9862 ± 0.008
ACGGGTAAAT	1.01 ± 0.036
CGAGTTTG	0.98 ± 0.056
ATGGCAGGCG	0.995 ± 0.04
TTGAGGGGTA	1.01 ± 0.021
TGAGGGGGAG	1.01 ± 0.04
GTTGTGAATA	0.994 ± 0.028
TTTGTCTAG	1.022 ± 0.00058
GAGTAGGCGC	0.955 ± 0.032
TGCTAGGCG	1.02 ± 0.032
AGATTCTGTA	0.97 ± 0.011
CATTTCGTAA	1.18 ± 0.02
CATAGCGTTA	1.03 ± 0.011

Sequence	switch fluorescence ratio
TGGATAGGGG	1.03 ± 0.012
TAGCGGCGT	0.9938 ± 0.0097
TTTGTTCTGG	1.49 ± 0.73
TAGCCTAATG	1.0049 ± 0.00065
GGTTGATGAT	0.975 ± 0.033
TGATTATAGG	0.992 ± 0.01
GTTTTTTTGT	0.966 ± 0.001
TTCATTTTGC	1.02 ± 0.015
GGGGAGACGA	1.04 ± 0.022
GGGGGGATAC	1.7 ± 0.61
GATACAGTGC	1.059 ± 0.002
GTCGAGGGGG	0.997 ± 0.05
TGTTCGAGGG	1.02 ± 0.059
ATTCCTTGTA	0.989 ± 0.039
CGGGTTTAAG	0.9933 ± 0.0026
TTGATGGTCA	0.943 ± 0.041
GTTAACGTGG	0.99 ± 0.019
AGGACAGCGC	1.024 ± 0.008
TGGTGGGATG	0.977 ± 0.021
TCAGAGGGTT	1.01 ± 0.031
CTATGCGGGA	1.01 ± 0.04
TGGGGACAAT	0.987 ± 0.018
AGGGGAGGGA	1 ± 0.027
TTAGTGCCGG	0.994 ± 0.016
CTATTTTACT	0.9873 ± 0.0073

Sequence	switch fluorescence ratio
AGGTGGGGTC	0.984 ± 0.016
GTTTTCCCTT	0.982 ± 0.016
TGTTAGGTAG	1.01 ± 0.011
AATTTTGGGA	0.994 ± 0.023
AAGTTGTGGG	0.967 ± 0.043
TGCTTTCGTC	0.945 ± 0.031
TGGTGCACC	0.983 ± 0.042
GGTGTATAGG	1.01 ± 0.011
GGGTTGTCGT	1.01 ± 0.062
CTAGGATGTA	0.986 ± 0.015
GGGGATGGTG	1 ± 0.035
ACGTTAGGGG	1.14 ± 0.14
CGGTTTACGT	0.997 ± 0.018
GTAACTAGAG	0.997 ± 0.033
ATGTTATTGC	1 ± 0.022
GAGGCGCATC	1 ± 0.026
TCGAGCCTTT	0.9909 ± 0.0014
TATAGGGAAG	1.02 ± 0.026
GGTAATTGTG	0.987 ± 0.016
TTTTGATCAA	1.01 ± 0.02
CGGTTTGGAG	0.995 ± 0.056
TGTCGACTGT	0.987 ± 0.042
TTGCGGGGG	1.01 ± 0.017
TCAAGTATGT	1.006 ± 0.01
TATTATATTA	1.02 ± 0.019

Sequence	switch fluorescence ratio
CGTCAGTGCA	1.01 ± 0.024
GCCTGGGAAG	0.976 ± 0.036
TATGGGGTAG	1 ± 0.013
TGCCTATGGG	0.977 ± 0.029
TGAGGGCGTG	1.01 ± 0.014
CCTATCGAAT	1.97 ± 1.1
AAAATTTGTT	1 ± 0.015
TTTATAATTA	0.982 ± 0.013
TTCATTAGCT	1 ± 0.025
AGAAGGGGTA	1.01 ± 0.046
CAGTTCGGCC	1.01 ± 0.024
GTCATAACAT	1.018 ± 0.0065
GGCTATGTGG	0.987 ± 0.03
TGTACTGGGG	1.003 ± 0.0094
AGTATGTTTT	0.995 ± 0.0076
TTAATCGGGG	1.05 ± 0.077
GTAATACCAA	1.03 ± 0.058
GGAGGGTTAC	0.972 ± 0.016
TGATAGGACA	0.983 ± 0.023
GCATGAAGGT	1 ± 0.014
TATCGAAGGT	0.986 ± 0.017
TTTGCTTCGT	1.04 ± 0.048
TTTTAAAACG	1.04 ± 0.084
TCATTCGGGG	0.973 ± 0.016
AGGGCCGGGC	0.962 ± 0.044
